# From patent publication US20240261333A1, “NOVEL TARGETS FOR ENHANCING ANTI-TUMOR IMMUNITY” (THE BROAD INSTITUTE, INC., priority 2021, published 2024)
# T1: B3GNT2 (Homo sapiens, UniProt Q9NY97)
# T1 construct: The respective ORFs of candidate genes [CD274 (NM_014143), MCL1 (NM_021960), JUNB (NM_002229), and B3GNT2 (NM_006577)] were synthesized; expressed in transfected cells; host or cells: A375 melanoma cells (lentiviral ORF overexpression)
# T1 sequence (Q9NY97 1-397): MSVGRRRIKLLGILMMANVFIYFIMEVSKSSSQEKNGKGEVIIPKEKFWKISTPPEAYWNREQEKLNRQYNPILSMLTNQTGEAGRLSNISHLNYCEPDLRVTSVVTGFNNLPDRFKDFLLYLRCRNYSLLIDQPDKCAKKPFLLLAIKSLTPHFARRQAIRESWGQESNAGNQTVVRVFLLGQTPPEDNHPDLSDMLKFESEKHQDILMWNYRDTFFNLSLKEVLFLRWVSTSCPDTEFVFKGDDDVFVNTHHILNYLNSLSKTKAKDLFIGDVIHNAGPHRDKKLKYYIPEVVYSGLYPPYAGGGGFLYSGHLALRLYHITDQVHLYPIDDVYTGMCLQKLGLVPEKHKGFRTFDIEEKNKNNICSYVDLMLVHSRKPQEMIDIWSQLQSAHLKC
# Biological target: T1, B3GNT2
# Experiment: Co-IP of FLAG-tagged B3GNT2 followed by mass spectrometry
# Format: cell-based
# Set-up: C-term IgG / C-term flag: unit not given here
# Conditions: mass spectrometry count, unit not given; for C-term flag / N-term FLAG: Co-IP with FLAG antibody; for C-term flag / C-term IgG: C-terminally FLAG-tagged B3GNT2; for N-term FLAG / N-term IgG: N-terminally FLAG-tagged B3GNT2; for C-term IgG / N-term IgG: Co-IP with IgG control antibody
# Outline: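 Co-purifying proteins were identified by fractionated nano-LC–MS/MS on an Orbitrap Elite, run data-dependent. Beforehand, lysates in 1% Triton X-100/HEPES buffer were incubated overnight at 4° C with anti-FLAG or […] and pulled down on Protein A/G magnetic beads for 4 h. Duplicate biological replicates.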
C-term flag,N-term FLAG,C-term IgG,N-term IgG,Molecule
8,0,0,0,GANAB (protein) ITLAVDRSNFKTCEESSFCKRQRSIRPGLSPYRALLDSLQLGPDSLTVHLIHEVTKVLLVLELQGLQKNMTRFRIDELEPRRPRYRVPDVLVADPPIARLSVSGRDENSVELTMAEGPYKIILTARPFRLDLLEDRSLLLSVNARGLLEFEHQRAPRVSQGSKDPAEGDGAQPEETPRDGDKPEETQGKAEKDEPGAWEETFKTHSDSKPYGPMSVGLDFSLPGMEHVYGIPEHADNLRLKVTEGGEPYRLYNLDVFQYELYNPMALYGSVPVLLAHNPHRDLGIFWLNAAETWVDISSNTAGKTLFGKMMDYLQGSGETPQTDVRWMSETGIIDVFLLLGPSISDVFRQYASLTGTQALPPLFSLGYHQSRWNYRDEADVLEVDQGFDDHNLPCDVIWLDIEHADGKRYFTWDPSRFPQPRTMLERLASKRRKLVAIVDPHIKVDSGYRVHEELRNLGLYVKTRDGSDYEGWCWPGSAGYPDFTNPTMRAWWANMFSYDNYEGSAPNLFVWNDMNEPSVFNGPEVTMLKDAQHYGGWEHRDVHNIYGLYVHMATADGLRQRSGGMERPFVLARAFFAGSQRFGAVWTGDNTAEWDHLKISIPMCLSLGLVGLSFCGADVGGFFKNPEPELLVRWYQMGAYQPFFRAHAHLDTGRREPWLLPSQHNDIIRDALGQRYSLLPFWYTLLYQAHREGIPVMRPLWVQYPQDVTTFNIDDQYLLGDALLVHPVSDSGAHGVQVYLPGQGEVWYDIQSYQKHHGPQTLYLPVTLSSIPVFQRGGTIVPRWMRVRRSSECMKDDPITLFVALSPQGTAQGELFLDDGHTFNYQTRQEFLLRRFSFSGNTLVSSSADPEGHFETPIWIERVVIIGAGKPAAVVLQTKGSPESRLSFQHDPETSVLVLRKPGINVASDWSIHLR
4,4,0,0,ARF4 (protein) GLTISSLFSRLFGKKQMRILMVGLDAAGKTTILYKLKLGEIVTTIPTIGFNVETVEYKNICFTVWDVGGQDRIRPLWKHYFQNTQGLIFVVDSNDRERIQEVADELQKMLLVDELRDAVLLLFANKQDLPNAMAISEMTDKLGLQSLRNRTWYVQATCATQGTGLYEGLDWLSNELSKR
2,0,0,0,CTHRC1 (protein) MWPPGRSITVKLREKTVSRKLEMNGPSAFQGLICGKYNGMCLQGPAGVPGRDGSPGANGIPGTPGIPGRDGFKGEKGECLRESFEESWTPNYKQCSWSSLNYGIDLGKIAECTFTKMRSNSALRVLFSGSLRLKCRNACCQRWYFTFNGAECSGPLPIEAIIYLDQGSPEMNSTINIHRTSSVEGLCEGIGAGLVDVAIWVGTCSDYPKGDASTGWNSVSRIIIEELPK
2,0,0,0,STAU2 (protein) MANPKEKTAMCLVNELARFNRVQPQYKLLNERGPAHSKMFSVQLSLGEQTWESEGSSIKKAQQAVANKALTESTLPKPVQKPPKSNVNNNPGSITPTVELNGLAMKRGEPAIYRPLDPKPFPNYRANYNFRGMYNQRYHCPVPKIFYVQLTVGNNEFFGEGKTRQAARHNAAMKALQALQNEPIPERSPQNGESGKDVDDDKDANKSEISLVFEIALKRNMPVSFEVIKESGPPHMKSFVTRVSVGEFSAEGEGNSKKLSKKRAATTVLQELKKLPPLPVVEKPKLFFKKRPKTIVKAGPEYGQGMNPISRLAQIQQAKKEKEPDYVLLSERGMPRRREFVMQVKVGNEVATGTGPNKKIAKKNAAEAMLLQLGYKASTNLQDQLEKTGENKGWSGPKPGFPEPTNNTPKGILHLSPDVYQEMEASRHKVISGTTLGYLSPKDMNQPSSSFFSISPTSNSSATIARELLMNGTSSTAEAIGLKGSSPTPPCSPVQPSKQLEYLARIQGFQAALSALKQFSEQGLDPIDGAMNIEKGSLEKQAKHLREKADNNQAPPGSIAQDCKKSNSAV
2,0,0,0,PJA2 (protein) SQYTEKEPAAMDQESGKAVWPKPAGGYQTITGRRYGRRHAYVSFKPCMTRHERSLGRAGDDYEVLELDDVPKENSSGSSPLDQVDSSLPSEPIFEKSETEIPTCGSALNQTTESSQSFVAVHHSEEGRDTLGSSTNLHNHSEGEYIPGACSASSVQNGIALVHTDSYDPDGKHGEDNDHLQLSAEVVEGSRYQESLGNTVFELENREAEAYTGLSPPVPSFNCEVRDEFEELDSVPLVKSSAGDTEFVHQNSQEIQRSSQDEMVSTKQQNNTSQERQTEHSPEDAACGPGHICSEQNTNDREKNHGSSPEQVVRPKVRKLISSSQVDQETGFNRHEAKQRSVQRWREALEVEESGSDDLLIKCEEYDGEHDCMFLDPPYSRVITQRETENNQMTSESGATAGRQEVDNTFWNGCGDYYQLYDKDEDSSECSDGEWSASLPHRFSGTEKDQSSSDESWETLPGKDENEPELQSDSSGPEEENQELSLQEGEQTSLEEGEIPWLQYNEVNESSSDEGNEPANEFAQPAFMLDGNNNLEDDSSVSEDLDVDWSLFDGFADGLGVAEAISYVDPQFLTYMALEERLAQAMETALAHLESLAVDVEVANPPASKESIDGLPETLVLEDHTAIGQEQCCPICCSEYIKDDIATELPCHHFFHKPCVSIWLQKSGTCPVCRRHFPPAVIEASAAPSSEPDPDAPPSNDSIAEAP
2,0,0,0,RRP12 (protein) MGRSGKLPSGVSAKLKRWKKGHSSDSNPAICRHRQAARSRFFSRPSGRSDLTVDAVKLHNELQSGSLRLGKSEAPETPMEEEAELVLTEKSSGTFLSGLSDCTNVTFSKVQRFWESNSAAHKEICAVLAAVTEVIRSQGGKETETEYFAALVLSCLATLLRKQDLEAWGYPVTLQVYHGLLSFTVHPKPKIRKAAQHGVCSVLKGSEFMFEKAPAHHPAAISTAKFCIQEIEKSGGSKEATTTLHMLTLLKDLLPCFPEGLVKSCSETLLRVMTLSHVLVTACAMQAFHSLFHARPGLSTLSAELNAQIITALYDYVPSENDLQPLLAWLKVMEKAHINLVRLQWDLGLGHLPRFFGTAVTCLLSPHSQVLTAATQSLKEILKECVAPHMADIGSVTSSASGPAQSVAKMFRAVEEGLTYKFHAAWSSVLQLLCVFFEACGRQAHPVMRKCLQSLCDLRLSPHFPHTAALDQAVGAAVTSMGPEVVLQAVPLEIDGSEETLDFPRSWLLPVIRDHVQETRLGFFTTYFLPLANTLKSKAMDLAQAGSTVESKIYDTLQWQMWTLLPGFCTRPTDVAISFKGLARTLGMAISERPDLRVTVCQALRTLITKGCQAEADRAEVSRFAKNFLPILFNLYGQPVAAGDTPAPRRAVLETIRTYLTITDTQLVNSLLEKASEKVLDPASSDFTRLSVLDLVVALAPCADEAAISKLYSTIRPYLESKAHGVQKKAYRVLEEVCASPQGPGALFVQSHLEDLKKTLLDSLRSTSSPAKRPRLKCLLHIVRKLSAEHKEFITALIPEVILCTKEVSVGARKNAFALLVEMGHAFLRFGSNQEEALQCYLVLIYPGLVGAVTMVSCSILALTHLLFEFKGLMGTSTVEQLLENVCLLLASRTRDVVKSALGFIKVAVTVMDVAHLAKHVQLVMEAIGKLSDDMRRHFRMKLRNLFTKFIRKFGFELVKRLLPEEYHRVLVNIRKAEARAKRHRALSQAAVEEEEEEEEEEEPAQGKGDSIEEILADSEDEEDNEEEERSRGKEQRKLARQRSRAWLKEGGGDEPLNFLDPKVAQRVLATQPGPGRGRKKDHGFKVSADGRLIIREEADGNKMEEEEGAKGEDEEMADPMEDVIIRNKKHQKLKHQKEAEEEELEIPPQYQAGGSGIHRPVAKKAMPGAEYKAKKAKGDVKKKGRPDPYAYIPLNRSKLNRRKKMKLQGQFKGLVKAARRGSQVGHKNRRKDRRP
2,0,0,0,CCT2 (protein) MDKILLSSGRDASLMVTNDGATILKNIGVDNPAAKVLVDMSRVQDDEVGDGTTSVTVLAAELLREAESLIAKKIHPQTIIAGWREATKAAREALLSSAVDHGSDEVKFRQDLMNIAGTTLSSKLLTHHKDHFTKLAVEAVLRLKGSGNLEAIHIIKKLGGSLADSYLDEGFLLDKKIGVNQPKRIENAKILIANTGMDTDKIKIFGSRVRVDSTAKVAEIEHAEKEKMKEKVERILKHGINCFINRQLIYNYPEQLFGAAGVMAIEHADFAGVERLALVTGGEIASTFDHPELVKLGSCKLIEEVMIGEDKLIHFSGVALGEACTIVLRGATQQILDEAERSLHDALCVLAQTVKDSRTVYGGGCSEMLMAHAVTQLANRTPGKEAVAMESYAKALRMLPTIIADNAGYDSADLVAQLRAAHSEGNTTAGLDMREGTIGDMAILGITESFQVKRQVLLSAAEAAEVILRVDNIIKAAPRKRVPDHHPC
3,0,0,0,CSRP1 (protein) MPNWGGGKKCGVCQKTVYFAEEVQCEGNSFHKSCFLCMVCKKNLDSTTVAVHGEEIYCKSCYGKKYGPKGYGYGQGAGTLSTDKGESLGIKHEEAPGHRPTTNPNASKFAQKIGGSERCPRCSQAVYAAEKVIGAGKSWHKACFRCAKCGKGLESTTLADKDGEIYCKGCYAKNFGPKGFGFGQGAGALVHSE
